Results on one variant are retold here after FireProtDB (doi:10.1021/bi00485a005).

The labels stand for the following.
B1: Guanyl-specific ribonuclease T1, P00651 (parent)
chain: MMYSKLLTLTTLLLPTALALPSLVERACDYTCGSNCYSSSDVSTAQAAGYQLHEDGETVGSNSYPHKYNNYEGFDFSVSSPYYEWPILSSGDVYSGGSPGADRVVFNENNQLAGVITHTGASGNNFVECT

In one data set the parent is B1. The note with it: Aspergillus oryzae (strain ATCC 42149 / RIB 40); pH 6.01; 25 °C; Urea; Fluorescence; MES 30 mM; NaCl 0.2 M; structure 1RN1; whole UniProt chain shown.
E84A: the “ddG of mutation (higher = less stable)” value was determined as 0.64 kcal/mol, the denaturant m value turned out to be 1.34 kcal/mol/M, the “denaturant midpoint (higher = more stable)” value is 5.67 M and the unfolding free energy was determined as 7.6 kcal/mol.

Staying with this data set, now noted: Aspergillus oryzae (strain ATCC 42149 / RIB 40); pH 8.01; 25 °C; Urea; Fluorescence; HEPPSO 30 mM; NaCl 0.2 mM; structure 1RN1; whole UniProt chain shown.
In the case of E84A, the “ddG of mutation (higher = less stable)” value was -0.71 kcal/mol, the denaturant m value is 1.36 kcal/mol/M, the “denaturant midpoint (higher = more stable)” value was determined as 4.89 M and the unfolding free energy was 6.63 kcal/mol.
